Source: publication PMC2100151, “Structural and Functional Characterization of the Human Protein Kinase ASK1” (Structure(London, England:1993), 2007)

Assays:
[1] = molecular target: the molecule itself; test: AUC; sedimentation equilibrium; protein at 6.5, 11.9 and 25.2 μM, 10,000 and 15,000 rpm; global fit to a self-association model; dimer to monomers
[2] = molecular target: the molecule itself; test: AUC; sedimentation velocity; 13 μM protein in 10 mM HEPES pH 7.4, 120 mM NaCl, 0.25% glycerol, 4°C, 40,000 rpm; c(s) and c(M) distributions (SEDFIT)

B1: Human ASK1 catalytic (kinase) domain, residues 659-951, phosphatase-treated (domain or fragment)
chain: not shown
modifications: mixture of un- and monophosphorylated protein; Thr838 partially phosphorylated in the crystal
notes: Apoptosis signal-regulating kinase 1 (ASK1, MAP3K5), human, residues 659-951 of the 1,374-residue protein, gi|5174547; Crystallised with 1 mM staurosporine; also called MAP3K5; ASK1 kinase domain; not shown: His6, N-terminal, cleaved
Kd [1]: 220 ± 200 nM | stoichiometry N [2]: 2

B2: Human ASK1 catalytic (kinase) domain, homogeneously triphosphorylated (domain or fragment)
chain: not shown
modifications: phosphothreonine at 813, 838 and 842 (autophosphorylation sites identified by mass spectrometry)
notes: Apoptosis signal-regulating kinase 1 (ASK1, MAP3K5), human, residues 659-951, gi|5174547; the same recombinant construct as m1, autophosphorylated; also called Tri-phosphorylated ASK1; triphosphorylated ASK1; source: recombinant protein treated with ATP/Mg2+ (autophosphorylated)
stoichiometry N [2]: 2
